This assay deals with SlGrx9-nLUC. The experiment in a line: luciferase complementation assay (LCA) in N. benthamiana leaves, quantified with ImageJ. The following applies: parent: est. 6.1; read off a plot.

cLUC-SlTrxh (from UniProt Q9LKW0) C54S: the response is 6. As to cLUC-SlTrxh (from UniProt Q9LKW0) C54W, the response worked out at 15.

Values taken from PMC11374535.
